Target: full-length human BRAF, wild type (insect cell-produced) (human) (UniProt P15056)
Assay: SEC-MALS

UniProt P15056, sequence (P15056 whole entry): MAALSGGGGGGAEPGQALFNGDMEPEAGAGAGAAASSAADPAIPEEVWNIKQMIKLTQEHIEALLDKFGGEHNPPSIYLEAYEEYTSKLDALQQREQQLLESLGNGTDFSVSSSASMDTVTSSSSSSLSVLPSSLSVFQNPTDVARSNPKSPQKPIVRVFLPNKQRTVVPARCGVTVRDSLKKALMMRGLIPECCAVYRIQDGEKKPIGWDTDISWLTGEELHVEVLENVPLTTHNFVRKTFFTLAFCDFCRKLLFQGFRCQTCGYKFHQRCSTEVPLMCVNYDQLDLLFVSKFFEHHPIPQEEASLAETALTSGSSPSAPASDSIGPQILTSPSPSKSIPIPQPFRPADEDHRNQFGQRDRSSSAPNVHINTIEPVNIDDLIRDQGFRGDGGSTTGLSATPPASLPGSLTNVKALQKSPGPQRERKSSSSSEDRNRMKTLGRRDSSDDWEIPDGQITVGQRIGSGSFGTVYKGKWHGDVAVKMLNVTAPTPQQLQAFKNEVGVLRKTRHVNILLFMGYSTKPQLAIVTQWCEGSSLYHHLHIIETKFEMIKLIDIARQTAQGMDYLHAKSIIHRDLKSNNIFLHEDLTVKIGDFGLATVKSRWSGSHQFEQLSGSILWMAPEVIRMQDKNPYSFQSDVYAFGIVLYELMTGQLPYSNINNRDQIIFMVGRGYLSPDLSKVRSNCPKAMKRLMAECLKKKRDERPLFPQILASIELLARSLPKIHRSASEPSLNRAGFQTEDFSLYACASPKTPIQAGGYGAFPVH

“insect cell-derived 14-3-3ε,ζ dimer (complex)” showed a stoichiometry N (14-3-3 dimer per BRAF) of 1.

From publication PMC7014971
